From patent US20100233173A1 (AstraZeneca / MedImmune, published 2010)

Target: T1, EphA2 (human, UniProt P29317 25-534, limits assumed)
T1 construct: also called biotinylated EphA2; soluble EphA2 antigen
Assay: BIAcore, ovalbumin immobilised, antigens injected one after the other
Procedure: FIG. 36. […] The upper curve represents the binding activity of three distinct epitope binding domains present on multispecific epitope binding protein “P1” represented in FIG. […]. Soluble EB, EA, and EphA2 antigens were added to immobilized P1 and the relative binding was measured. The three distinct inflections referenced by the arrows corresponding to the three antigens indicates binding to the immobilized P1. Ovalbumin (bottom curve) was used as a negative control.
Methods: Triple-specific binding ability of P1 (FIG. 3D) was assessed by BIAcore by injecting the three antigens EB, EA and EphA2 sequentially over a P1-coated chip. When the P1 epitope had been saturated with the first antigen (EB), the second antigen (EA) was injected, followed by the injection of the third antigen (EphA2). Ovalbumin was used as a negative binding control.

T1 sequence (P29317 25-534 limits assumed): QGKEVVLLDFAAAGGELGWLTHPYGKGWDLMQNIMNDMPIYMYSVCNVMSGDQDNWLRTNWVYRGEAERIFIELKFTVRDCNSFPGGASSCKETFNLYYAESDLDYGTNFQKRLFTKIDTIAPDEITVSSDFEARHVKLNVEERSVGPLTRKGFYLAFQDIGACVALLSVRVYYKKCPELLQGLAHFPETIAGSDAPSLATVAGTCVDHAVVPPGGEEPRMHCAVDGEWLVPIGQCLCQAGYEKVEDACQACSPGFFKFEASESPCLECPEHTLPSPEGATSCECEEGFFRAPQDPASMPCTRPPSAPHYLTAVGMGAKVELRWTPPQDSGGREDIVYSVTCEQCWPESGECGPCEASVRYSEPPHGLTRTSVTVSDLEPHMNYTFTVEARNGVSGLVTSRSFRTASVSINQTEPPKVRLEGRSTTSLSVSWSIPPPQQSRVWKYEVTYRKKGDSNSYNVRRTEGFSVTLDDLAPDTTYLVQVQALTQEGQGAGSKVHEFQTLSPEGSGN

binding result: no binding
B1: Ovalbumin (other, UniProt P01012 2-386, looked up)
chain: GSIGAASMEFCFDVFKELKVHHANENIFYCPIAIMSALAMVYLGAKDSTRTQINKVVRFDKLPGFGDSIEAQCGTSVNVHSSLRDILNQITKPNDVYSFSLASRLYAEERYPILPEYLQCVKELYRGGLEPINFQTAADQARELINSWVESQTNGIIRNVLQPSSVDSQTAMVLVNAIVFKGLWEKAFKDEDTQAMPFRVTEQESKPVQMMYQIGLFRVASMASEKMKILELPFASGTMSMLVLLPDEVSGLEQLESIINFEKLTEWTSSNVMEERKIKVYLPRMKMEEKYNLTSVLMAMGITDVFSSSANLSGISSAESLKISQAVHAAHAEINEAGREVVGSAEAGVDAASVSEEFRADHPFLFCIKHIATNAVLFFGRCVSP
notes: also called immobilized ovalbumin
